Measured values taken from the supplement of paper PMC10126150.
± gives the standard deviation of the averaged measurements.

System: ATP
Assay: switch fluorescence ratio, 500 uM ATP over buffer (Cy3 cluster intensity, sum of 5 cycles each) (fold (ratio)); higher = stronger signal-on switching upon ATP binding; sequences stand for … in TCGTCGGCAGCGTCAGATGTGTATAAGAGACAGTTTTTTTTTTTTTTTTTTTTTTTTT…TC
Settings: aptamer strand: ATP DNA aptamer (quencher-CACCTGGGGGAGTATTGCGGAGGAAGG + anchor), 100 nM annealed; ATP concentration: 500 uM
Procedure, shortened: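 Exposure to 500 uM ATP lasted 15 min at 22 °C before imaging, and a selection-buffer image was taken beforehand, for Cy3-labelled switching-strand clusters on a modified Illumina MiSeq flow-cell annealed to 100 nM quencher-labelled ATP aptamer. Five buffer/ATP cycles were run with NaOH stripping and re-annealing between them. The fluorescence ratio per cluster is summed target-cycle over summed buffer-cycle Cy3 intensity, averaged per switch-domain sequence. Clusters outside 100-1000 RFU were excluded.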

| Sequence | switch fluorescence ratio |
| --- | --- |
| ATATATGAGG | 0.974 ± 0.03 |
| ATATATTTAG | 0.996 ± 0.012 |
| ATATCTCGAG | 0.981 ± 0.02 |
| ATATGAACGA | 1.021 ± 0.0066 |
| ATATGAGGGG | 0.965 ± 0.027 |
| ATATGAGGTT | 0.977 ± 0.023 |
| ATATGAGTGA | 0.985 ± 0.013 |
| ATATGATGTA | 0.966 ± 0.014 |
| ATATGATTAG | 0.993 ± 0.021 |
| ATATGCATGG | 0.969 ± 0.014 |
| ATATGCCCT | 1.04 ± 0.03 |
| ATATGCTTTC | 0.994 ± 0.011 |
| ATATGGAGCA | 1.03 ± 0.046 |
| ATATGGTGGT | 1.03 ± 0.023 |
| ATATGGTGTA | 0.959 ± 0.021 |
| ATATGGTGTT | 1.01 ± 0.025 |
| ATATGTCAAG | 1.0025 ± 0.00017 |
| ATATGTGACG | 1 ± 0.033 |
| ATATGTGGCT | 0.99 ± 0.054 |
| ATATGTGGGG | 1.01 ± 0.011 |
| ATATGTTATG | 0.982 ± 0.015 |
| ATATGTTGTC | 0.894 ± 0.11 |
| ATATGTTGTT | 0.98 ± 0.025 |
| ATATTAAAGT | 1.038 ± 0.0047 |
| ATATTAAGAT | 0.988 ± 0.028 |
| ATATTAAGTC | 1.02 ± 0.013 |

| Sequence | switch fluorescence ratio |
| --- | --- |
| ATATTAGATT | 1.019 ± 0.0076 |
| ATATTAGGTC | 1.01 ± 0.016 |
| ATATTAGTAT | 1.01 ± 0.038 |
| ATATTATTTT | 0.9788 ± 0.0047 |
| ATATTCAGTA | 1 ± 0.015 |
| ATATTCTTAG | 1.01 ± 0.013 |
| ATATTCTTTG | 0.997 ± 0.016 |
| ATATTGAGGT | 1 ± 0.013 |
| ATATTGATTA | 1.02 ± 0.032 |
| ATATTGGGGT | 1.01 ± 0.019 |
| ATATTGGTAC | 1.034 ± 0.0013 |
| ATATTTAAAA | 0.985 ± 0.021 |
| ATATTTACTA | 1.11 ± 0.11 |
| ATATTTGAGT | 0.9878 ± 0.0045 |
| ATATTTGGCG | 1.007 ± 0.0029 |
| ATATTTTATG | 1.03 ± 0.044 |
| ATATTTTCAG | 0.994 ± 0.012 |
| ATATTTTGGG | 1.003 ± 0.0089 |
| ATCAAAATTT | 1.03 ± 0.028 |
| ATCAAAGCGG | 0.998 ± 0.0094 |
| ATCAAAGGGA | 0.976 ± 0.048 |
| ATCAACGGAA | 1.08 ± 0.013 |
| ATCAACGGCA | 1.07 ± 0.023 |
| ATCACGGGGG | 1.02 ± 0.019 |
| ATCACTGATT | 1.057 ± 0.0085 |
| ATCAGAAGGT | 0.995 ± 0.021 |

| Sequence | switch fluorescence ratio |
| --- | --- |
| ATCAGAATGA | 1.013 ± 0.0023 |
| ATCAGATTAC | 1.025 ± 0.0092 |
| ATCAGATTTT | 0.9867 ± 0.0034 |
| ATCAGCCATA | 1.03 ± 0.036 |
| ATCAGGGCGG | 0.9887 ± 0.0089 |
| ATCAGGGGCA | 1.057 ± 0.0049 |
| ATCAGGGTAT | 1.07 ± 0.089 |
| ATCAGGGTGC | 1.06 ± 0.051 |
| ATCAGGTGGT | 1.19 ± 0.036 |
| ATCAGTATTA | 1.02 ± 0.016 |
| ATCAGTTCCT | 1.04 ± 0.013 |
| ATCATACACT | 1.06 ± 0.018 |
| ATCATACGGG | 1.03 ± 0.02 |
| ATCATACTGT | 1.007 ± 0.0024 |
| ATCATAGGGG | 1 ± 0.016 |
| ATCATCTGAC | 1.095 ± 0.0095 |
| ATCATGATTC | 0.983 ± 0.018 |
| ATCATGGGAC | 1.03 ± 0.0069 |
| ATCATTAGGG | 0.976 ± 0.032 |
| ATCATTAGTA | 0.999 ± 0.021 |
| ATCCAGGGGT | 1.06 ± 0.022 |
| ATCCAGGGTA | 1.01 ± 0.03 |
| ATCCAGGTAG | 1.75 ± 0.076 |
| ATCCCGAAGC | 1.93 ± 0.18 |
| ATCCCGGGGA | 0.962 ± 0.014 |
| ATCCCGTAGG | 0.9905 ± 0.0084 |

| Sequence | switch fluorescence ratio |
| --- | --- |
| ATCCCTAAAA | 1.0207 ± 0.00031 |
| ATCCCTCATA | 1.01 ± 0.018 |
| ATCCGCCGCT | 1.72 ± 0.089 |
| ATCCGGACTT | 1.02 ± 0.034 |
| ATCCGGCGAT | 1.35 ± 0.018 |
| ATCCGGGGTT | 1.06 ± 0.057 |
| ATCCGGGTGG | 1 ± 0.059 |
| ATCCGGTTTG | 0.982 ± 0.041 |
| ATCCGTAATT | 2.6 ± 0.22 |
| ATCCGTTTTT | 1 ± 0.016 |
| ATCCTAGTGT | 1.04 ± 0.052 |
| ATCCTTGTTT | 0.997 ± 0.083 |
| ATCCTTTCTT | 1.003 ± 0.0062 |
| ATCGAAAAGG | 0.998 ± 0.027 |
| ATCGAAGGTA | 0.985 ± 0.013 |
| ATCGAATTGG | 0.998 ± 0.026 |
| ATCGAGGCGT | 1.01 ± 0.019 |
| ATCGAGGTCC | 1.01 ± 0.074 |
| ATCGATGAGC | 1.006 ± 0.004 |
| ATCGATGCTT | 0.979 ± 0.012 |
| ATCGATTGAG | 0.971 ± 0.015 |
| ATCGATTTCT | 1.004 ± 0.0049 |
| ATCGCAGATT | 1.03 ± 0.019 |
| ATCGCCCGTT | 1.01 ± 0.016 |
| ATCGGCGGTG | 0.986 ± 0.025 |
| ATCGGCTCTC | 1.03 ± 0.025 |

| Sequence | switch fluorescence ratio |
| --- | --- |
| ATCGGCTCTG | 0.991 ± 0.043 |
| ATCGGGAATT | 1.009 ± 0.0044 |
| ATCGGGAGGG | 1 ± 0.013 |
| ATCGGGATTA | 0.987 ± 0.021 |
| ATCGGGGGCT | 0.98 ± 0.038 |
| ATCGGGGTGG | 1 ± 0.071 |
| ATCGGGTATG | 0.9987 ± 0.0082 |
| ATCGGTATTT | 1.19 ± 0.39 |
| ATCGGTCGGG | 1.011 ± 0.0088 |
| ATCGGTCTTT | 0.997 ± 0.084 |
| ATCGGTGACA | 1 ± 0.035 |
| ATCGGTGTGT | 0.989 ± 0.045 |
| ATCGGTTGTG | 1.01 ± 0.029 |
| ATCGTATATG | 0.972 ± 0.043 |
| ATCGTATGTA | 0.9708 ± 0.0055 |
| ATCGTGGTCA | 0.987 ± 0.018 |
| ATCGTGTGTG | 0.991 ± 0.035 |
| ATCGTGTTGT | 1.02 ± 0.015 |
| ATCGTTGTGG | 0.9893 ± 0.0048 |
| ATCTAAAGGG | 0.999 ± 0.015 |
| ATCTATCCTT | 1.01 ± 0.036 |
| ATCTATCTGT | 1 ± 0.027 |
| ATCTCACTT | 1.02 ± 0.03 |
| ATCTCCTGCC | 1.475 ± 0.0051 |
| ATCTGATGGC | 0.957 ± 0.039 |
| ATCTGCATGA | 1.01 ± 0.063 |

| Sequence | switch fluorescence ratio |
| --- | --- |
| ATCTGCCGGT | 0.981 ± 0.017 |
| ATCTGCGGGA | 1.05 ± 0.042 |
| ATCTGGAACG | 0.988 ± 0.02 |
| ATCTGGGTTA | 0.993 ± 0.013 |
| ATCTGGTCAT | 0.972 ± 0.016 |
| ATCTGTGGA | 1.015 ± 0.0024 |
| ATCTGTTGTC | 1.06 ± 0.021 |
| ATCTTCGGTT | 1 ± 0.055 |
| ATCTTGATTG | 1.03 ± 0.016 |
| ATCTTGGGGC | 0.984 ± 0.023 |
| ATCTTGGTCC | 0.9948 ± 0.003 |
| ATCTTGTGGG | 0.9678 ± 0.0064 |
| ATCTTTATGG | 0.964 ± 0.014 |
| ATCTTTTGAG | 0.97588 ± 0.00047 |
| ATGAAAAAAG | 0.993 ± 0.016 |
| ATGAAAAAAT | 0.974 ± 0.015 |
| ATGAAAAGGA | 0.97123 ± 0.00096 |
| ATGAAAGGCT | 1.02 ± 0.0022 |
| ATGAAAGTAG | 1.005 ± 0.0012 |
| ATGAAAGTCT | 0.976 ± 0.042 |
| ATGAACGTTT | 1.2 ± 0.28 |
| ATGAAGCATG | 1.08 ± 0.04 |
| ATGAAGGCGG | 1.05 ± 0.068 |
